Test results as given in patent US20240013853A1 (University of Washington, published 2024).

Assays:
[1] = target: the molecule itself; assay: X-ray crystallography; self-association of protomers (homo-dimer)
Procedure: (§1) 19 designs were chosen to undergo crystallization screens. Each design was expressed as described above in 0.5 L cultures. […] Following SEC, 2 mM of NiCl₂ was added and the solution was incubated overnight at 37° C. Following cleavage, the solutions containing the cleaved protein products were incubated with 1 mL Ni-NTA resin to bind any uncleaved product, and the flow through was collected. Following SEC into Crystallization buffer (20 mM Tris, 50 mM NaCl, pH 8.0), each sample was concentrated to approximately 15 mg mL⁻¹. The following sitting drop broad screens were set up at room temperature with three protein:crystallization condition ratios (1:1, 1:2, 2:1) using the mosquito pipetting instrument (sptlabtech): Midas™ (Molecular Dimensions), Proplex™ (Molecular Dimensions), JCSG+™ (Molecular Dimensions), Morpheus™ (Molecular Dimensions), Pact Premier™ (Molecular Dimensions), LMB™ (Molecular Dimensions), Index™ (Hampton Research) and PGA™ (Molecular Dimensions). Each was monitored weekly for crystal growth using the JANSi UVEX imaging system.
Where required, crystals were cryoprotected with 20% glycerol or 25% ethylene glycol prior to flash freezing in liquid nitrogen. Data collection was done using the Advanced Photon Source synchrotron. Images were integrated using XDS 20220110 (37). Aimless (38) was used for scaling and merging. […]

[2] = target: the molecule itself; assay: X-ray crystal structure; self-association of protomers
Procedure: as §1
Where required, crystals were cryoprotected with 20% glycerol or 25% ethylene glycol prior to flash freezing in liquid nitrogen. Data collection was done using the Advanced Photon Source synchrotron. Images were integrated using XDS 20220110 (37). Aimless (38) was used for scaling and merging. Phaser™ 2.8 (39) was used for molecular replacement using the design models as search models (either monomer or oligomeric complex). Models were built using Coot 0.9.8 (40) and refined with Phenix ™ refine from Phenix™ 1.20 (41) and RefMac™ (42) from CCP4 7.1 (38) suite. All structures were validated using MolProbity™ 4.5.1(43).

[3] = target: the molecule itself; assay: single particle cryoEM; self-association of protomers
Procedure: The designs were relaxed into experimental cryoEM electron densities using Rosetta FastRelax and SetupForDensityScoring.
For some samples, multiple blots were applied in order to obtain the best particle density. All grids were blotted using a blot force of 0 and 5.5 second blot time at 100% humidity and 4° C. and plunge-frozen in liquid ethane using a Vitrobot™ Mark IV (FEI Thermo Scientific). All cryoEM grids were screened on a Glacios™ transmission electron microscope (FEI Thermo Scientific) operated at 200 kV and equipped with a Gatan K2 or K3 Summit direct detector. […] Movies were acquired in counting mode fractionated in 50 frames of 200 ms at 8.5 e-/pixel/sec for a total dose of ˜65e-/Å².

[4] = target: the molecule itself; assay: negative stain EM, 2D class averages and 3D maps; self-association of protomers (hexamer)
Procedure: (§2) Next, we selected three designs: one C15 homo-pentamer (HALC5-15_262), one C18 homo-hexamer (HALC6-18_265) and one C33 homo-trimer (HALC3-33_343) for high-resolution single particle cryoEM characterization.
(§3) SEC fractions corresponding to the designs were concentrated in TBS prior to negative stain EM screening. Samples were then immediately diluted 5 to 150 times in TBS buffer (25 mM Tris, 100 mM NaCl, pH 8.0) depending on the concentration of the samples. A final volume of 5 μL was applied on negatively glow discharged, carbon-coated 400-mesh copper grids (01844-F, TedPella Inc.), then washed with Milli-Q Water and stained using 0.75% uranyl formate as previously described (44). Air-dried grids were then imaged on either a FEI Talos™ L120C TEM (FEI Thermo Scientific) equipped with a 4K×4K Gatan OneView™ camera at a magnification of 57,000× and pixel size of 2.5 Å. Micrographs collection was automated using EPU™ software (FEI Thermo Scientific) and were imported into CisTEM™ software (45) or cryoSPARC™ software (46, 47). CTF estimation was done with CTFFIND4 and a circular blob picker was used to select particles which were then subjected to 2D classification. Ab initio reconstruction and homogeneous refinement in Cn symmetry were used to generate 3D electron density maps. All EM maps can be found in supplementary data.

[5] = target: the molecule itself; assay: negative stain EM, 2D class averages and 3D maps; self-association of protomers (pentamer)
Procedure: as §2, §3

[6] = target: the molecule itself; assay: negative stain EM, 2D class averages and 3D maps; self-association of protomers (heptamer)
Procedure: as §2, §3

B1: HALC2_062 (other)
chain: MARVEYSYEKLNDTHYKLKLKVTYEYRKSPEARRLAEDLVQAFVDALSSLPFITVEYEVEEVEVE
notes: De novo designed protomer; the entry is one protomer and the pair is protomer with identical protomer (C2 homo-dimer)
[1]
  binding result: binds

B2: HALC2_068 (other)
chain: MIKVPEDLERIGRELRARGLDTKRLLEEGPKLYPELSIPDLMAIALYDHLNLDPEFLYRLLQQSR
notes: De novo designed protomer; pair is protomer with identical protomer (C2 homo-dimer)
[2]
  binding result: binds

B3: HALC3_104 (other)
chain: KRIDEIESKLKHLEEFTTHLIKLMETMLELLKLVSDGKSDSEEYKELLEKAEEYLKQATEAAKKI
notes: De novo designed protomer; pair is protomer with identical protomer (C3 homo-trimer)
[2]
  binding result: binds

B4: HALC3_109 (other)
chain: REEIEEAVKEAELKVLAIVLVALRSVSHYEPLSRLYESFLDALKKALSEEELKEVEKEAERIEKK
notes: as for B3
[2]
  binding result: binds

B5: HALC4_135 (other)
chain: MEKFKEQLLEEVKKIVLETMTKVMEHLEKWFVTLAEIIITKSEEKLEELKETMEKSIEELRKEAE
notes: De novo designed protomer; pair is protomer with identical protomer (C4 homo-tetramer)
[2]
  binding result: binds

B6: HALC15-5_262 (other)
chain: DVPLTDPKNLNEFLYALGEGLKGMKNLKKLTLTFPSNPLTIPGDISEGFRELGEGLKGMKNLEELTVTFNDVPLTDPKNLNEFLYALGEGLKGMKNLKKLTLTFPSNPLTIPGDISEGFRELGEGLKGMKNLEELTVTFNDVPLTDPKNLNEFLYALGEGLKGMKNLKKLTLTFPSNPLTIPGDISEGFRELGEGLKGMKNLEELTVTFN
notes: De novo designed protomer; pair is protomer with identical protomer (C15 internal symmetry, homo-pentamer); also called HALC5-15_262; HALC5-15 262; not shown: C-terminal His tag
[3]
  binding result: binds

B7: HALC33-3_343 (other)
chain: PSNWPEVAKYFDLGKALKPIGEGLQNLKNLKHLDLSFSFSLELYPGLPSNWPEVAKYFDLGKALKPIGEGLQNLKNLKHLDLSFSFSLELYPGLPSNWPEVAKYFDLGKALKPIGEGLQNLKNLKHLDLSFSFSLELYPGLPSNWPEVAKYFDLGKALKPIGEGLQNLKNLKHLDLSFSFSLELYPGLPSNWPEVAKYFDLGKALKPIGEGLQNLKNLKHLDLSFSFSLELYPGLPSNWPEVAKYFDLGKALKPIGEGLQNLKNLKHLDLSFSFSLELYPGLPSNWPEVAKYFDLGKALKPIGEGLQNLKNLKHLDLSFSFSLELYPGLPSNWPEVAKYFDLGKALKPIGEGLQNLKNLKHLDLSFSFSLELYPGLPSNWPEVAKYFDLGKALKPIGEGLQNLKNLKHLDLSFSFSLELYPGLPSNWPEVAKYFDLGKALKPIGEGLQNLKNLKHLDLSFSFSLELYPGLPSNWPEVAKYFDLGKALKPIGEGLQNLKNLKHLDLSFSFSLELYPGL
notes: De novo designed protomer; pair is protomer with identical protomer (C33 internal symmetry, homo-trimer); not shown: C-terminal His tag
[3]
  binding result: binds

B8: HALC6_220 (other)
chain: PPIPPPSFKLEISPAFLELVQLVIDLHPNDEEVRKELIENLISRIGKSDNVPPETISLDISEAALELFEWIFEKFPDDEDVHRRLIESFINKRKFSSSSPLDTPSLDISERFIELVKYILEKYPEDEEIKQKLIDSLLNLLGSY
notes: De novo designed protomer; pair is protomer with identical protomer (C6 homo-hexamer); not shown: C-terminal His tag
[4]
  binding result: binds

B9: HALC24-6_316 (other)
chain: SKEKLGIQQDLFEGIIATLLSHKDPRVLYLMVTILKLTGSSPSKEKLGIQQDLFEGIIATLLSHKDPRVLYLMVTILKLTGSSPSKEKLGIQQDLFEGIIATLLSHKDPRVLYLMVTILKLTGSSPSKEKLGIQQDLFEGIIATLLSHKDPRVLYLMVTILKLTGSSP
notes: De novo designed protomer; pair is protomer with identical protomer (C24 internal symmetry, homo-hexamer); not shown: C-terminal His tag
[4]
  binding result: binds

B10: HALC20-5_308 (other)
chain: SLGWKVLLHLDLTWYPGADYTIDHDDMTRAARALAHGFERAAHSFAEAIGSTGSLGWKVLLHLDLTWYPGADYTIDHDDMTRAARALAHGFERAAHSFAEAIGSTGSLGWKVLLHLDLTWYPGADYTIDHDDMTRAARALAHGFERAAHSFAEAIGSTGSLGWKVLLHLDLTWYPGADYTIDHDDMTRAARALAHGFERAAHSFAEAIGSTG
notes: De novo designed protomer; pair is protomer with identical protomer (C20 internal symmetry, homo-pentamer); not shown: C-terminal His tag
[5]
  binding result: binds

B11: HALC25-5_341 (other)
chain: EGAAIAENLATAYQGIGETLPSLQDLRVLHLSVIFSAEGSSPEGAAIAENLATAYQGIGETLPSLQDLRVLHLSVIFSAEGSSPEGAAIAENLATAYQGIGETLPSLQDLRVLHLSVIFSAEGSSPEGAAIAENLATAYQGIGETLPSLQDLRVLHLSVIFSAEGSSPEGAAIAENLATAYQGIGETLPSLQDLRVLHLSVIFSAEGSSP
notes: De novo designed protomer; pair is protomer with identical protomer (C25 internal symmetry, homo-pentamer); not shown: C-terminal His tag
[5]
  binding result: binds

B12: HALC42-7_351 (other)
chain: PSLTLNDFGDLGKGLGEGLQGMENLEKLQLTITLKLTVSTPSLTLNDFGDLGKGLGEGLQGMENLEKLQLTITLKLTVSTPSLTLNDFGDLGKGLGEGLQGMENLEKLQLTITLKLTVSTPSLTLNDFGDLGKGLGEGLQGMENLEKLQLTITLKLTVSTPSLTLNDFGDLGKGLGEGLQGMENLEKLQLTITLKLTVSTPSLTLNDFGDLGKGLGEGLQGMENLEKLQLTITLKLTVST
notes: De novo designed protomer; pair is protomer with identical protomer (C42 internal symmetry, homo-heptamer); not shown: C-terminal His tag
[6]
  binding result: binds
